Data taken from article PMC10397247.
Blank lines part the entries; values can stand above or below the binder they belong to.

Experiments:
4H344-bH = biological target: T1, 4H344-bH; experiment: two-hybrid library CCNG1;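 note: natural log of median RNA to DNA barcode read ratio; higher means stronger binding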
T1 chain: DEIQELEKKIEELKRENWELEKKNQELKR

4H363-bH = biological target: T2, 4H363-bH; experiment: two-hybrid library CCNG1;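 note: natural log of median RNA to DNA barcode read ratio; higher means stronger binding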
T2 chain: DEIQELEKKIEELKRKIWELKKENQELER

4H3907-bH = biological target: T3, 4H3907-bH; experiment: two-hybrid library CCNG1;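 note: natural log of median RNA to DNA barcode read ratio; higher means stronger binding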
T3 chain: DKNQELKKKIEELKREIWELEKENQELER

4H3961-bH = biological target: T4, 4H3961-bH; experiment: two-hybrid library CCNG1;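 note: natural log of median RNA to DNA barcode read ratio; higher means stronger binding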
T4 chain: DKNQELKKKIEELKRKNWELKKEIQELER

4H470-bH = biological target: T5, 4H470-bH; experiment: two-hybrid library CCNG1;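 note: natural log of median RNA to DNA barcode read ratio; higher means stronger binding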
T5 chain: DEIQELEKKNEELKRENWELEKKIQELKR

APC2257-AA = biological target: T6, APC2257-AA; experiment: two-hybrid library CCmax;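 note: natural log of median RNA to DNA barcode read ratio; higher means stronger binding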
T6 chain: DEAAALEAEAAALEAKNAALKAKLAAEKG

APC2375-AA = biological target: T7, APC2375-AA; experiment: two-hybrid library CCmax; settings: mean of both orientations
T7 chain: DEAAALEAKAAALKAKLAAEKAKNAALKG

APC2474-AA = biological target: T8, APC2474-AA; experiment: two-hybrid library CCmax; settings: mean of both orientations
T8 chain: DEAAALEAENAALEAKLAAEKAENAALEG

APC2543-AA = biological target: T9, APC2543-AA; experiment: two-hybrid library CCmax; settings: mean of both orientations
T9 chain: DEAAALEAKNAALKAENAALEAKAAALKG

APC2556-AA = biological target: T10, APC2556-AA; experiment: two-hybrid library CCmax; settings: mean of both orientations
T10 chain: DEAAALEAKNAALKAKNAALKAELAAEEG

APC2724-AA = biological target: T11, APC2724-AA; experiment: two-hybrid library CCmax; settings: mean of both orientations
T11 chain: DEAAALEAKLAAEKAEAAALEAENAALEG

APC2811-AA = biological target: T12, APC2811-AA; experiment: two-hybrid library CCmax; settings: mean of both orientations
T12 chain: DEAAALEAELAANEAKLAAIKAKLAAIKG

APC2981-AA = biological target: T13, APC2981-AA; experiment: two-hybrid library CCmax; settings: mean of both orientations
T13 chain: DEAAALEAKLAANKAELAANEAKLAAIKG

APC3265-AA = biological target: T14, APC3265-AA; experiment: two-hybrid library CCmax
T14 chain: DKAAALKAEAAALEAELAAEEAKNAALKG

APC3323-AA = biological target: T15, APC3323-AA; experiment: two-hybrid library CCmax; settings: mean of both orientations
T15 chain: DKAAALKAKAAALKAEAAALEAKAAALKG

APC3354-AA = biological target: T16, APC3354-AA; experiment: two-hybrid library CCmax; settings: mean of both orientations
T16 chain: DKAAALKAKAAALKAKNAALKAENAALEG

APC3881-AA = biological target: T17, APC3881-AA; experiment: two-hybrid library CCmax; settings: mean of both orientations
T17 chain: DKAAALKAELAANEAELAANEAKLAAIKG

APC4100-AA = biological target: T18, APC4100-AA; experiment: two-hybrid library CCmax; settings: mean of both orientations
T18 chain: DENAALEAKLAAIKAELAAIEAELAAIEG

APC4336-AA = biological target: T19, APC4336-AA; experiment: two-hybrid library CCmax; settings: mean of both orientations
T19 chain: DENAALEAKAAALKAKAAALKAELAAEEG

APC5009-AA = biological target: T20, APC5009-AA; experiment: two-hybrid library CCmax; settings: mean of both orientations
T20 chain: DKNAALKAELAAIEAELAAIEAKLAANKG

APC542-AA = biological target: T21, APC542-AA; experiment: two-hybrid library CCmax; settings: mean of both orientations
T21 chain: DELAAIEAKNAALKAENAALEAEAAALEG

APC5531-AA = biological target: T22, APC5531-AA; experiment: two-hybrid library CCmax; settings: mean of both orientations
T22 chain: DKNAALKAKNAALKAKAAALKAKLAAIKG

APC6088-AA = biological target: T23, APC6088-AA; experiment: two-hybrid library CCmax; settings: mean of both orientations
T23 chain: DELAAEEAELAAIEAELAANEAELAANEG

APC7524-AA = biological target: T24, APC7524-AA; experiment: two-hybrid library CCmax; settings: mean of both orientations
T24 chain: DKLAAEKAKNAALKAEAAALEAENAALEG

APC8401-AA = biological target: T25, APC8401-AA; experiment: two-hybrid library CCmax; settings: mean of both orientations
T25 chain: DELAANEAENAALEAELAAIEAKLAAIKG

APC8516-AA = biological target: T26, APC8516-AA; experiment: two-hybrid library CCmax; settings: mean of both orientations
T26 chain: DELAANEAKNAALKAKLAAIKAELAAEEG

APC9141-AA = biological target: T27, APC9141-AA; experiment: two-hybrid library CCmax; settings: mean of both orientations
T27 chain: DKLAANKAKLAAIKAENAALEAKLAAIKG

APC9182-AA = biological target: T28, APC9182-AA; experiment: two-hybrid library CCmax; settings: mean of both orientations
T28 chain: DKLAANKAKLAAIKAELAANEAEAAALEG

APC9291-AA = biological target: T29, APC9291-AA; experiment: two-hybrid library CCmax; settings: mean of both orientations
T29 chain: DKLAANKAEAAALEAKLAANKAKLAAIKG

APC9806-AA = biological target: T30, APC9806-AA; experiment: two-hybrid library CCmax; settings: mean of both orientations
T30 chain: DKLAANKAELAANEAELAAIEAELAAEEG

interaction score (4H344-bH): 0.843
interaction score (4H363-bH): 0.49
interaction score (4H3907-bH): 0.791
interaction score (4H3961-bH): 0.837
interaction score (4H470-bH): 0.944
B1: 4H344-bH (peptide)
chain: DEIQELEKKIEELKRENWELEKKNQELKR

interaction score (APC2257-AA): -1.12
interaction score (APC2375-AA): -1.42
interaction score (APC2474-AA): -1.46
interaction score (APC2543-AA): -1.02
interaction score (APC2556-AA): -1.99
interaction score (APC2724-AA): -1.47
interaction score (APC2811-AA): 1.49
interaction score (APC2981-AA): -1.18
interaction score (APC3265-AA): -1.43
interaction score (APC3323-AA): -1.58
interaction score (APC3354-AA): -1.45
interaction score (APC3881-AA): -1.31
interaction score (APC4100-AA): -1.56
interaction score (APC4336-AA): -1.71
interaction score (APC5009-AA): -1.07
interaction score (APC542-AA): -1.54
interaction score (APC5531-AA): -1.97
interaction score (APC6088-AA): -1.24
interaction score (APC7524-AA): -1.59
interaction score (APC8401-AA): -1.32
interaction score (APC8516-AA): -1.64
interaction score (APC9141-AA): -1.37
interaction score (APC9182-AA): -1.86
interaction score (APC9291-AA): -1.61
interaction score (APC9806-AA): -1.79
B2: APC2257-AA (peptide)
chain: DEAAALEAEAAALEAKNAALKAKLAAEKG
